Results published in IntAct's records for PubMed 23104057.

B1: Neuropilin-1 (Mus musculus), P97333 (parent)
chain: MERGLPLLCATLALALALAGAFRSDKCGGTIKIENPGYLTSPGYPHSYHPSEKCEWLIQAPEPYQRIMINFNPHFDLEDRDCKYDYVEVIDGENEGGRLWGKFCGKIAPSPVVSSGPFLFIKFVSDYETHGAGFSIRYEIFKRGPECSQNYTAPTGVIKSPGFPEKYPNSLECTYIIFAPKMSEIILEFESFDLEQDSNPPGGMFCRYDRLEIWDGFPEVGPHIGRYCGQKTPGRIRSSSGVLSMVFYTDSAIAKEGFSANYSVLQSSISEDFKCMEALGMESGEIHSDQITASSQYGTNWSVERSRLNYPENGWTPGEDSYKEWIQVDLGLLRFVTAVGTQGAISKETKKKYYVKTYRVDISSNGEDWISLKEGNKAIIFQGNTNPTDVVLGVFSKPLITRFVRIKPVSWETGISMRFEVYGCKITDYPCSGMLGMVSGLISDSQITASNQADRNWMPENIRLVTSRTGWALPPSPHPYTNEWLQVDLGDEKIVRGVIIQGGKHRENKVFMRKFKIAYSNNGSDWKTIMDDSKRKAKSFEGNNNYDTPELRTFSPLSTRFIRIYPERATHSGLGLRMELLGCEVEAPTAGPTTPNGNPVDECDDDQANCHSGTGDDFQLTGGTTVLATEKPTIIDSTIQSEFPTYGFNCEFGWGSHKTFCHWEHDSHAQLRWSVLTSKTGPIQDHTGDGNFIYSQADENQKGKVARLVSPVVYSQSSAHCMTFWYHMSGSHVGTLRVKLRYQKPEEYDQLVWMVVGHQGDHWKEGRVLLHKSLKLYQVIFEGEIGKGNLGGIAVDDISINNHISQEDCAKPTDLDKKNTEIKIDETGSTPGYEGEGEGDKNISRKPGNVLKTLDPILITIIAMSALGVLLGAVCGVVLYCACWHNGMSERNLSALENYNFELVDGVKLKKDKLNPQSNYSEA
partner: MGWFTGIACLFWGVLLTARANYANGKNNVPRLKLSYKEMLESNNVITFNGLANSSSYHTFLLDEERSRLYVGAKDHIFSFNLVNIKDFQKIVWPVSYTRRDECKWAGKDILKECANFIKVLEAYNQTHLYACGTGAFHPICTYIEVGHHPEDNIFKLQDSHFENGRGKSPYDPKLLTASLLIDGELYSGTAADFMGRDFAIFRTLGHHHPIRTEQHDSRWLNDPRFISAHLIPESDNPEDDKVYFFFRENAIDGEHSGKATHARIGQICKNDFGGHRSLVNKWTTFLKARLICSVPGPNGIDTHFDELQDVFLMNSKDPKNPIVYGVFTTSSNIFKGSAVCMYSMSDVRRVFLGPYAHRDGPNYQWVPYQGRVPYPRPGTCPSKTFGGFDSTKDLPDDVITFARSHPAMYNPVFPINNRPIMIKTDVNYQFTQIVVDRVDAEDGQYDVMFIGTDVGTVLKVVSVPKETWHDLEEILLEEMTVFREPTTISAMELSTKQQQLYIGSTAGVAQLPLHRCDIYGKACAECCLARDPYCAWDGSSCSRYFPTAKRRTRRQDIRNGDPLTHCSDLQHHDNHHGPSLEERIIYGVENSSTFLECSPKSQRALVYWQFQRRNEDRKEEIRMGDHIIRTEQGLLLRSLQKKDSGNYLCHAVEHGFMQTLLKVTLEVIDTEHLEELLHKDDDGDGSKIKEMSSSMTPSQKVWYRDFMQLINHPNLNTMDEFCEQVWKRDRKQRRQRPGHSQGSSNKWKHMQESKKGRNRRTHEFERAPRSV
B2: Semaphorin-3A (Mus musculus), O08665 (parent)
chain: B1 partner
B3: Neuropilin-1 (Mus musculus), P97333 (parent)
chain: B1 chain
B4: Plexin-A2 (Mus musculus), P70207 (parent)
chain: MEQRRFYLRAMQADNLSVVLLSVAWLLLARGTTGMPQYSTFHSENRDWTFNHLTVHRRTGAVYVGAINRVYKLTGNLTIQVAHKTGPEEDNKACYPPLIVQPCSEVLTLTNNVNKLLIIDYSENRLLACGSLYQGVCKLLRLDDLFILVEPSHKKEHYLSSVNKTGTMYGVIVRSEGEDGKLFIGTAVDGKQDYFPTLSSRKLPRDPESSAMLDYELHSDFVSSLIKIPSDTLALVSHFDIFYIYGFASGGFVYFLTVQPETPDGMAINSAGDLFYTSRIVRLCKDDPKFHSYVSLPFGCTRAGVEYRLLQAAYLAKPGEALAQAFNISSDEDVLFAIFSKGQKQYHHPPDDSALCAFPIRAINLQIKERLQSCYHGEGNLELNWLLGKDVQCTKAPVPIDDNFCGLDINQPLGGSTPVEGLTLYTTSRDRLTSVASYVYNGYSVVFVGTKSGKLKKIRADGPPHGGVQYEMVSVFKDGSPILRDMAFSINQLYLYVMSERQVTRVPVESCEQYTTCGECLSSGDPHCGWCALHNMCSRRDKCQRAWEANRFAASISQCMSLEVHPNSISVSDHSRLLSLVVNDAPNLSEGIACAFGNLTEVEGQVSGSQVICISPGPKDVPVIPLDQDWFGLELQLRSKETGKIFVSTEFKFYNCSAHQLCLSCVNSAFRCHWCKYRNLCTHDPTTCSFQEGRINVSEDCPQLVPTEEILIPVGEVKPITLKARNLPQPQSGQRGYECVLSIQGAVHRVPALRFNSSSVQCQNSSYQYDGMDISNLAVDFAVVWNGNFIIDNPQDLKVHLYKCAAQRESCGLCLKADHKFECGWCSGERRCTLHQHCPSTSSPWLDWSSHNVKCSNPQITEILTVSGPPEGGTRVTIHGVNLGLDFSEIAHHVQVAGVPCTPIPGEYIIAEQIVCEMGHAVIGTTSGPVRLCIGECKPEFMTKSHQQYTFVNPSVLSLSPIRGPESGGTMVTITGHYLGAGSSVAVYLGNQTCEFYGRSMNEIVCVSPPSSNGLGPVPVSVSVDRARVDSSLQFEYIDDPRVQRIEPEWSITSGHTPLTITGFNLDVIQEPRVRVKFNGKESVNVCTVVNTTTLTCLAPSLTSDYRPGLDTVERPDEFGFLFNNVQSLLIYNDTKFIYYPNPTFELLSPTGILDQKPGSPIILKGKNLCPPASGGAKLNYTVMIGETPCTVTVSETQLLCEPPNLTGQHKVMVHVGGMVFSPGSVSVISDSLLTLPAIISIAAGGSLLLIIVIIVLIAYKRKSRENDLTLKRLQMQMDNLESRVALECKEAFAELQTDINELTSDLDRSGIPYLDYRTYAMRVLFPGIEDHPVLRELEVQGNGQQHVEKALKLFAQLINNKVFLLTFIRTLELQRSFSMRDRGNVASLIMTGLQGRLEYATDVLKQLLSDLIDKNLENKNHPKLLLRRTESVAEKMLTNWFAFLLHKFLKECAGEPLFMLYCAIKQQMEKGPIDAITGEARYSLSEDKLIRQQIEYKTLILNCVNPDNENSPEIPVKVLNCDTITQVKEKILDAVYKNVPYSQRPRAVDMDLEWRQGRIARVVLQDEDITTKIEGDWKRLNTLMHYQVSDRSVVALVPKQTSSYNIPASASISRTSISRYDSSFRYTGSPDSLRSRVPMITPDLESGVKVWHLVKNHDHGDQKEGDRGSKMVSEIYLTRLLATKGTLQKFVDDLFETLFSTVHRGSALPLAIKYMFDFLDEQADRHSIHDTDVRHTWKSNCLPLRFWVNVIKNPQFVFDIHKGSITDACLSVVAQTFMDSCSTSEHRLGKDSPSNKLLYAKDIPSYKNWVERYYADIAKLPAISDQDMNAYLAEQSRLHATEFNMLSALNEIYSYVSKYSEELIGALEQDEQARRQRLAYKVEHLINAMSIES

Variants of: B1
Conditions: with sem3a_mouse Sema3a

Row | effect of a mutation on the interaction | Variant
1 | disrupting interaction strength | P73A;H74S

Variants of: B2
Conditions: with nrp1_mouse Nrp1, P97333

Row | effect of a mutation on the interaction | Variant
2 | decreasing interaction strength | L353N;P355S

Variants of: B3
Conditions: with plxa2_mouse Plxna2, P70207

Row | effect of a mutation on the interaction | Variant
3 | disrupting interaction strength | P73A;H74S

Variants of: B4
Conditions: with nrp1_mouse Nrp1, P97333

Row | effect of a mutation on the interaction | Variant
4 | decreasing interaction strength | F275N
